Laboratory results taken from publication PMC3794784, “The Role of Initial Oligomers in Amyloid Fibril Formation by Human Stefin B” (International Journal of Molecular Sciences, 2013).
Where “and” joins values, the source holds several entries; their conditions need not be identical. Identical values can stand only once.

Assays:
[1] = target: the molecule itself; assay: native MS; ESI-Q-TOF MS of SEC fractions, stefin B in 0.02 M ammonium acetate, pH 7.5, injected directly, positive mode
[2] = target: the molecule itself; assay: SEC; pH dependent transitions started from separated tetramers or higher-order oligomers; 34 μM protein, 2 h at 23 °C at pH 4.8, 5.8 or 7.0, 0.15 M NaCl, 9% (v/v) TFE
[3] = target: the molecule itself; assay: SEC; oligomers isolated on Superdex 75 and then loaded on Superdex 200; room temperature; 0.01 M phosphate buffer, pH 7.0, 0.15 M NaCl (0.02 M ammonium acetate, pH 7.5 for ESI MS samples)
[4] = target: the molecule itself; assay: SEC; time course started from SEC-purified monomers, dimers, tetramers or higher-order oligomers; pH 5.8 (0.1 M phosphate buffer, 0.15 M NaCl, 9% (v/v) TFE, 25 °C); an aliquot every hour on Superdex 75; tetramer to dimers
[5] = target: the molecule itself; assay: SEC; concentration dependence (34, 75, 100 μM), started from the oligomer mixture; 0.02 M ammonium acetate, pH 7.5, 0.15 M NaCl, 9% (v/v) TFE, 50 °C, 300 rpm, 5 h; aliquots on Superdex 75; dimer to monomers, Kd = [M]^2/[D]
[6] = target: the molecule itself; assay: SEC; concentration dependence (4, 9, 34, 75, 100 μM), started from the oligomer mixture; 0.1 M phosphate buffer, pH 5.8, 0.15 M NaCl, 9% (v/v) TFE, 25 °C, 300 rpm, 5 h; aliquots on Superdex 75; tetramer to dimers, Kd = [D]^2/[T]

B1: Recombinant human stefin B (S3E31) (natural protein, UniProt P04080 1-98, looked up)
chain: MMSGAPSATQPATAETQHIADQVRSQLEEKENKKFPVFKAVSFKSQVVAGTNYFIKVHVGDEDFVHLRVFQSLPHENKPLTLSNYQTNKAKHDELTYF
notes: human stefin B (product of the cystatin B gene), a globular protein of 98 amino acid residues; variant S3E31: Ser at position 3 instead of Cys, Glu at position 31; also called cystatin B
- stoichiometry N [1]: 10 and 8
- stoichiometry N [2]: 6 and 3
- stoichiometry N [3]: 2 and 4
- koff [4]: 0.0001 s⁻¹
- Ka [5]: 612000 M⁻¹
- Kd [5]: 1.63 ± 0.31 µM
- Ka [6]: 3080 M⁻¹
- Kd [6]: 325 ± 180 µM
